Test results from patent US20190169289A1 (Scripps Research, published 2019).
Where two headings read alike, the source gives them in different places. Ends that are not written are not given here.

Columns and labels:
[1] = target: T1, anti-GCN4 (52SR4 scFv) sCAR with CD8 hinge; test: flow cytometry of CD8 sCAR T cells stained with AF488-conjugated PNE; filled histogram against a dashed control histogram
T1 construct: 273 is the protein without leader; also called sCAR (long); CD8 sCAR

[2] = target: T2, anti-GCN4 (52SR4 scFv) sCAR with IgG4m hinge; test: flow cytometry competition on CAR-T cells with the GCN4 CAR (SEQ ID NO. 74): 1 nM labelled GCN4 peptide (GCN4-AF488) as competitor, unlabelled peptide titrated, MFI of the labelled peptide read
T2 construct: disulfide dimer by western blot; also called short-dimeric sCAR; IgG4m sCAR
T2 chain: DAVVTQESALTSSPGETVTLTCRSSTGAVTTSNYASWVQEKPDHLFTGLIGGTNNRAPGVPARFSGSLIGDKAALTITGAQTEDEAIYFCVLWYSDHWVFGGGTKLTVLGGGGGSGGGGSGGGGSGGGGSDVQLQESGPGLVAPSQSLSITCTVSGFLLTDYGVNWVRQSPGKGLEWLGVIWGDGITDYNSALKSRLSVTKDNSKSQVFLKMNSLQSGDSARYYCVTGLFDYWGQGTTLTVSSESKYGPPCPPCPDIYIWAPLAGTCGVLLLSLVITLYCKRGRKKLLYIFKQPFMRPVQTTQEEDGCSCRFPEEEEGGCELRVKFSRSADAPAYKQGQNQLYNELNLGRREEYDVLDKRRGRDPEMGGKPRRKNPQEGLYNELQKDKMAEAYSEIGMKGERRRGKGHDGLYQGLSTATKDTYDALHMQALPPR
From the text: Un-labelled peptide binding efficiency was indirectly shown by measuring the mean fluorescence intensity (MFI) staining with the labelled peptide.
Cells were then washed twice with cold PBS to remove the free labelled peptide before being analyzed using the BD Accuri flow cytometer.

[3] = target: anti-Her2-FLAG switch; test: ELISA, absorbance at 375nm, of anti-FLAG antibody 5B3 on the anti-Her2-FLAG switch; the text gives the same value as an apparent affinity of 2.2×10^-10 M
[4] = target: T1, anti-GCN4 (52SR4 scFv) sCAR with CD8 …; test: flow cytometry on CD8 sCAR-T cells, switch 30 min at 4 C, detected with PE-conjugated goat anti-human kappa chain antibody, MFI
From the text: Cells were washed two times and analyzed using the Accuri flow cytometer (BD).

[5] = target: T3, CD22 (UniProt P20273 20-847, limits assumed); test: cell-based or functional assay
[6] = target: T3, CD22; test: cell-based or functional assay; remark: listed apart in the source
[7] = target: T3, CD22; test: cell-based or functional assay; remark: listed apart in the source
[8] = target: T3, CD22; test: cell-based or functional assay; remark: listed apart in the source
[9] = target: T3, CD22; test: cell-based or functional assay; remark: listed apart in the source
[10] = target: T3, CD22; test: cell-based or functional assay; remark: listed apart in the source
[11] = target: T1, anti-GCN4 (52SR4 scFv) sCAR with CD8 …; test: flow cytometry on sCAR-T cells

B1: yeast transcription factor GCN4 minimal binding peptide NYHLENEVARLKKL (peptide)
peptide: NYHLENEVARLKKL
modifications: not fully specified
notes: also called PNE
[1]
  binding result: binds
[2]
  binding result: binds

B2: anti-FLAG monoclonal antibody (clone: 5B3) (antibody, V domains shown)
VH: EVQLQQSGAELVKPGASVKLSCTASGFNIKDYYMHWVKQRTEQGLEWIGRIDPEDGETKYAPKFQGKATITADTSSKTAYLQLSSLTSEDTAVYYCARLKGGYWGQGTTLTVSS
VL: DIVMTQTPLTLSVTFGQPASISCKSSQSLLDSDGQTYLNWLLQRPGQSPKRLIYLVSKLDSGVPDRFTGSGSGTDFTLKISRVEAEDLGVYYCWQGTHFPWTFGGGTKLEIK
notes: Mouse hybridoma antibody
[3]
  EC50: 0.22 nM

B3: anti-CD19 (FMC63) Fab LCNT switch (Fab, V domains shown)
VH: EVKLQESGPGLVAPSQSLSVTCTVSGVSLPDYGVSWIRQPPRKGLEWLGVIWGSETTYYNSALKSRLTIIKDNSKSQVFLKMNSLQTDDTAIYYCAKHYYYGGSYAMDYWGQGTSVTVSS
VL: DIQMTQTTSSLSASLGDRVTISCRASQDISKYLNWYQQKPDGTVKLLIYHTSRLHSGVPSRFSGSGSGTDYSLTISNLEQEDIATYFCQQGNTLPYTFGGGTKLEIKR
notes: also called LCNT Fab
[4]
  EC50 (read off the curve): ~2000 pM

B4: anti-CD22 (clone hLL2) Fab CTBV switch (Fab)
light: DIQLTQSPSSLSASVGDRVTMSCKSSQSVLYSANHKNYLAWYQQKPGKAPKLLIYWASTRESGVPSRFSGSGSGTDFTFTISSLQPEDIATYYCHQYLSSWTFGGGTKLEIKRTVAAPSVFIFPPSDEQLKSGTASVVCLLNNFYPREAKVQWKVDNALQSGNSQESVTEQDSKDSTYSLSSTLTLSKADYEKHKVYACEVTHQGLSSPVTKSFNRGECGGGGSNYHLENEVARLKKL
heavy: QVQLVQSGAEVKKPGSSVKVSCKASGYTFTSYWLHWVRQAPGQGLEWIGYINPRNDYTEYNQNFKDKATITADESTNTAYMELSSLRSEDTAFYFCARRDITTFYWGQGTTVTVSSARTKGPSVFPLAPSSKSTSGGTAALGCLVKDYFPEPVTVSWNSGALTSGVHTFPAVLQSSGLYSLSSVVTVPSSSLGTQTYICNVNHKPSNTKVDKKVEPKSCGGGGSNYHLENEVARLKKL
[5]
  EC50 of cytotoxicity: 28.8 pM
[6]
  cytotoxicity at 0.01 pM: 1.34
  cytotoxicity at 0.1 pM: 0.18
  cytotoxicity at 1 pM: 1.38
  cytotoxicity at 10 pM: 4.1
  cytotoxicity at 100 pM: 28.2
  cytotoxicity at 1000 pM: 46.9
  cytotoxicity at 10000 pM: 44.2
[7]
  EC50 of cytotoxicity: 55.5 pM
[8]
  EC50 of cytotoxicity: 69.1 pM
[9]
  cytotoxicity at 0.06 pM: -3.84
  cytotoxicity at 0.30 pM: -0.28
  cytotoxicity at 1.52 pM: -4.59
  cytotoxicity at 7.62 pM: 0.02
  cytotoxicity at 38.10 pM: 6.77
  cytotoxicity at 952.40 pM: 21.7
  cytotoxicity at 4762.00 pM: 24.3
[10]
  cytotoxicity at 0.01 pM: 4.6
  cytotoxicity at 0.1 pM: 3.6
  cytotoxicity at 10 pM: 10.4
  cytotoxicity at 100 pM: 42.2
  cytotoxicity at 1000 pM: 47.4
  cytotoxicity at 10000 pM: 44.9

B5: anti-CD22 (clone hLL2) Fab CTBV3 switch (3 GGGGS linker) (Fab)
light: DIQLTQSPSSLSASVGDRVTMSCKSSQSVLYSANHKNYLAWYQQKPGKAPKLLIYWASTRESGVPSRFSGSGSGTDFTFTISSLQPEDIATYYCHQYLSSWTFGGGTKLEIKRTVAAPSVFIFPPSDEQLKSGTASVVCLLNNFYPREAKVQWKVDNALQSGNSQESVTEQDSKDSTYSLSSTLTLSKADYEKHKVYACEVTHQGLSSPVTKSFNRGECGGGGSGGGGSGGGGSNYHLENEVARLKKL
heavy: QVQLVQSGAEVKKPGSSVKVSCKASGYTFTSYWLHWVRQAPGQGLEWIGYINPRNDYTEYNQNFKDKATITADESTNTAYMELSSLRSEDTAFYFCARRDITTFYWGQGTTVTVSSARTKGPSVFPLAPSSKSTSGGTAALGCLVKDYFPEPVTVSWNSGALTSGVHTFPAVLQSSGLYSLSSVVTVPSSSLGTQTYICNVNHKPSNTKVDKKVEPKSCGGGGSGGGGSGGGGSNYHLENEVARLKKL
[5]
  EC50 of cytotoxicity: 14.9 pM
[10]
  cytotoxicity at 0.01 pM: 2.54
  cytotoxicity at 0.1 pM: 7.9
  cytotoxicity at 10 pM: 17
  cytotoxicity at 100 pM: 51.3
  cytotoxicity at 1000 pM: 45.3
  cytotoxicity at 10000 pM: 41.5

B6: anti-CD19 (FMC63) IgG LCC1 switch (antibody)
light: DIQMTQTTSSLSASLGDRVTISCRASQDISKYLNWYQQKPDGTVKLLIYHTSRLHSGVPSRFSGSGSGTDYSLTISNLEQEDIATYFCQQGNTLPYTFGGGTKLEIKRTVAAPSVFIFPPSDEQLKSGTASVVCLLNNFYPREAKVQWKVDNALQSGNSQESVTEQDSGGGGSNYHLENEVARLKKLGGGGSDSTYSLSSTLTLSKADYEKHKVYACEVTHQGLSSPVTKSFNRGEC
heavy: EVKLQESGPGLVAPSQSLSVTCTVSGVSLPDYGVSWIRQPPRKGLEWLGVIWGSETTYYNSALKSRLTIIKDNSKSQVFLKMNSLQTDDTAIYYCAKHYYYGGSYAMDYWGQGTSVTVSSASTKGPSVFPLAPSSKSTSGGTAALGCLVKDYFPEPVTVSWNSGALTSGVHTFPAVLQSSGLYSLSSVVTVPSSSLGTQTYICNVNHKPSNTKVDKKVEPKSCDKTHTCPPCPAPPVAGPSVFLFPPKPKDTLMISRTPEVTCVVVDVSHEDPEVKFNWYVDGVEVHNAKTKPREEQYNSTYRVVSVLTVLHQDWLNGKEYKCKVSNKGLPSSIEKTISKAKGQPREPQVYTLPPSRDELTKNQVSLTCLVKGFYPSDIAVEWESNGQPENNYKTTPPVLDSDGSFFLYSKLTVDKSRWQQGNVFSCSVMHEALHNHYTQKSLSLSPGK
notes: also called LCC1 IgG; IgG (FcNull) switch
[11]
  binding result: binds
